From patent publication US6663869B1, “Polyoxime compounds and their preparation” (Gryphon Therapeutics, Inc., priority 1993, dated 2003)
The star is where a group is joined. aminooxyacetyl = NOCC(=O)*

Tests used:
[1] = storage stability as a powder at −20° C.; assay type: physicochemical
Protocol: Solvent was removed by vacuum centrifugation (Speed-Vac; Savant Instruments) without heating. […] Similar methods were used to prepare octa-GXL-baseplate (SEQ ID NO: 9).
The hexa-AOA-baseplate product (SEQ ID NO: 5) eluted during the isocratic elution at 5% B. The product eluted as a single peak on analytical RP-HPLC. The mass was determined by ESI-MS to be 1325.49+/−0.38 daltons as compared to the calculated mass of 1325.4 daltons. […] The storage vial was kept tightly sealed and volatile aldehydes were excluded.
Following solvent removal by vacuum centrifugation, the AOA-TCTP sample (SEQ ID NO: 4) was characterized by ESI-MS. The molecular weight of the sample was determined to be 1542.57+/−1.14 daltons, as compared to the expected value of 1541.73 daltons. The reaction yielded 120 mg AOA-TCTP from 1.3 g. AOA-polypeptidyl resin.

mouse melanoma cells = settings: even when modified at the alpha-amino group and when linked as a homodimer (Bagutti et al. 1992); cited from earlier work
[2] = assay type: physicochemical; settings: pH 7
B16-F1 melanoma cells = experiment: in situ melanin assay (Bagutti 1992); assay type: cell-based; settings: relative to full-length hormone
Protocol: The biological activity of MSH can be measured, for example, with an in situ melanin assay in which the peptide is tested for stimulation of B16-F1 melanoma cells (Bagutti 1992).
The binding and potency of some alpha-melanocyte stimulating hormone analog polyoximes were determined. Relative binding in the binding assay using mouse melanoma cells (Bagutti (1992)) refers to the average dissociation constant (Kd) for full-length natural hormone divided by the Kd for our oxime analog. Relative potency in the melanin assay (Bagutti (1992)) refers to the ratio of the concentrations (giving 50% of maximum effect) of full-length hormone and that of analog. Results with the analog of alpha-MSH, Nle-Asp-His-(D)Phe-Arg-Trp-Lys-amide, are provided.

| Substance | storage stability [1] | further results |
| --- | --- | --- |
| NH2OCH2CO-ELGGGPGAGSLQPLALEGSLQKR-OH (aminooxyacetyl-ELGGGPGAGSLQPLALEGSLQKR-OH; SMILES CC(C)C[C@H](NC(=O)[C@H](C)NC(=O)[C@H](CC(C)C)NC(=O)[C@@H]1CCCN1C(=O)[C@H](CCC(N)=O)NC(=O)[C@H](CC(C)C)NC(=O)[C@H](CO)NC(=O)CNC(=O)[C@H](C)NC(=O)CNC(=O)[C@@H]1CCCN1C(=O)CNC(=O)CNC(=O)CNC(=O)[C@H](CC(C)C)NC(=O)[C@H](CCC(=O)O)NC(=O)CON)C(=O)N[C@@H](CCC(=O)O)C(=O)NCC(=O)N[C@@H](CO)C(=O)N[C@@H](CC(C)C)C(=O)N[C@@H](CCC(N)=O)C(=O)N[C@@H](CCCCN)C(=O)N[C@@H](CCCNC(=N)N)C(=O)O) [AOA-Pep C COSM] | stable for at least several months |  |
| NH2OCH2CO-Lys-Leu-Glu-Glu-Gln-Arg-Pro-Glu-Arg-Val-Lys-Gly-OH (aminooxyacetyl-KLEEQRPERVKG-OH; SMILES CC(C)C[C@H](NC(=O)[C@H](CCCCN)NC(=O)CON)C(=O)N[C@@H](CCC(=O)O)C(=O)N[C@@H](CCC(=O)O)C(=O)N[C@@H](CCC(N)=O)C(=O)N[C@@H](CCCNC(=N)N)C(=O)N1CCC[C@H]1C(=O)N[C@@H](CCC(=O)O)C(=O)N[C@@H](CCCNC(=N)N)C(=O)N[C@H](C(=O)N[C@@H](CCCCN)C(=O)NCC(=O)O)C(C)C) [AOA-TCTP COSM] | stable for at least several months |  |
| Nle-Asp-His-(D-Phe)-Arg-Trp-Lys |  | binding to melanoma cells (mouse melanoma cells): binds to melanoma cells |
| OCH—CO-Gly3-[Lys(COCHO)]5-Gly-OH [hexa-GXL-baseplate] | stable for at least several weeks |  |
| Ser-TCTP precursor COSM: TCTP 12-mer peptide with added N-terminal serine, SEQ ID NO: 2 (SKLEEQRPEVKG) | stable indefinitely |  |
| acetyl-Asp-Cys-Thr-Leu-Ile-Asp-Ala-Leu-Leu-Gly-Asp-Pro-His-amide (XCTLIDALLGDPX; N-terminal acetyl, C-terminal amide) |  | oxidized to the disulfide dimer [2]: about 30% |
| control monooxime: aminooxyacetyl Nle-Asp-His-(D)Phe-Arg-Trp-Lys-amide oximated with acetaldehyde |  | relative potency (ratio of concentrations giving 50% of maximum effect of full-length hormone and analog) (B16-F1 melanoma cells): 1.78 |
